How the values were obtained:
[1] = molecular target: myostatin mature C-terminal dimer (purified from conditioned medium of CHO cells carrying a myostatin expression construct) (UniProt O14793); assay: inhibition of labeled myostatin binding to Act RIIB-transfected COS-7 cells
[2] = molecular target: cell surface binding proteins on L6 myoblasts (GDF-8 receptor); assay: I-125 labeled GDF-8 receptor-ligand binding assay on myoblasts

Sequence of myostatin prodomain peptide (purified from the CHO cell myostatin preparation) (O08689 25-267): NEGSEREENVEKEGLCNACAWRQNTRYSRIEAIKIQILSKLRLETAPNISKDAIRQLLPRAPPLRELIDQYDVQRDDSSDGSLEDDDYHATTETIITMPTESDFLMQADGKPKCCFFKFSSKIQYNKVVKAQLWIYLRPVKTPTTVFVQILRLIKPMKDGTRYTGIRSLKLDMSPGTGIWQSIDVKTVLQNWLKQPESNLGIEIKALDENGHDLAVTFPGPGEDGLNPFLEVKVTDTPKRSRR

follistatin
Ki [1]: 0.47 nM

myostatin prodomain peptide (purified from the CHO cell myostatin preparation)
fold of Ki against the Ki of follistatin [1]: 50 fold

recombinant human GDF-8 (rhGDF-8) homodimer (from UniProt O14793 267-374) (ligand)
Kd [2]: 0.37 nM

Reference: patent publication US20100169989A1
